Series [1] concerns the target His-BhXyl43 (Bacillus halodurans C-125). The series can be described thus: SAXS; proteins in 50 mM phosphate pH 7, around 10 mg/mL; direct injection and online SEC-HPLC curves merged; fit to the dimer of PDB 1YRZ or rigid body modelling; dimer to monomers.
The target of series [2] is His-In-NpXyn11A-BhXyl43-Jo (not stated | Neocallimastix patriciarum | Bacillus halodurans C-125). Described as above.
The target of series [3] is His-In-NpXyn11A-Jo-BhXyl43 (not stated | Neocallimastix patriciarum | Bacillus halodurans C-125). The series is described as above.
Substrate in the series “purified protein”: O=[N+]([O-])c1ccc(O[C@@H]2OC[C@@H](O)[C@H](O)[C@H]2O)cc1
Kind of series: purified protein. In kind it is biochemical, Halalkalibacterium halodurans. The conditions noted are these: 50 mM Tris-HCl pH 8, 1 mg/mL BSA, 45 °C, 10 min, 0.1 to 18 mM substrate.

The molecule His-BhXyl43 (enzyme) returned a stoichiometry N in series [1] of 2.

His-In-NpXyn11A-BhXyl43-Jo (complex) yielded a stoichiometry N in series [2] of 2.

In series [3], His-In-NpXyn11A-Jo-BhXyl43 (complex) came in with a stoichiometry N of 2.

B1: His-Jo-BhXyl43 (Halalkalibacterium halodurans C-125) (protein)
chain: MVNRIQNPILPGFHPDPSIVRVGDDYYIATSTFEWFPGVRIHHSRDLKHWRFVSSPLTRTSQLDMKGNMNSGGIWAPCLSYHDGTFYLIYTDVKQWHGAFKDAHNYLVTAQNIEGPWSDPIYLNSSGFDPSLFHDDDGRKWLVNMIWDYRKGNHPFAGIILQEYSEAEQKLVGPVKNIYKGTDIQLTEGPHLYKKDGYYYLLVAEGGTEYEHAATLARSQSIDGPYETDPSYPLVTSTGQPELALQKAGHGSLVETQNGEWYLAHLCGRPLKGKYCTLGRETAIQKVNWTEDGWLRIEDGGNHPLREVTAPDLPEHPFEKEPELDDFDAPQLHHQWNTLRIPADPSWCSLEERPGHLRLRGMESLTSVHSQSLVARRQQSFHCEVETKLEYQPESFQHMAGLVIYYDTEDHVYLHVTWHEEKGKCLQIIQTKGGNYDELLASPIPLAEEKAVYLKGRIHRETMHLYFKQEGEAEWQPVGPTIDVTHMSDDSAKQVRFTGTFVGMATQDLSGTKKPADFDYFRYKELDQ
notes: N-terminal His6 tag and Jo module (about 10 kDa, isopeptide-forming fragment) fused to the N-terminus of BhXyl43 (63 kDa); expressed in E. coli BL21(DE3), IMAC purified
For B1, in the series “purified protein”, the Michaelis-Menten constant (Km) amounted to 6.01 ± 0.41 mM, the kcat was 18.1 ± 1.17 s⁻¹ and the kcat/Km is 3015 ± 10.9 M⁻¹ s⁻¹.

One may read the stoichiometry N as the number of molecules, sites or subunits per partner or assembly. As usually defined, the Km is the substrate concentration at which the rate is half of its maximum. Usually kcat stands for the number of substrate molecules converted per active site and unit of time at saturation. The kcat/Km is the second-order rate constant that governs catalysis at low substrate concentration.

(Values after publication PMC7353053, “Characterisation of the Effect of the Spatial Organisation of Hemicellulases on the Hydrolysis of Plant Biomass Polymer” (International Journal of Molecular Sciences, 2020).)
